We go through one molecule from patent US20160304610A1 (JOUNCE THERAPEUTICS, published 2016).

This experiment concerns the target T1, mouse ICOS, full length, on cells (mouse, UniProt Q9WVS0 21-200).
T1 construct: also called CHO-mICOS; mouse ICOS+ CHO cells
T1 sequence: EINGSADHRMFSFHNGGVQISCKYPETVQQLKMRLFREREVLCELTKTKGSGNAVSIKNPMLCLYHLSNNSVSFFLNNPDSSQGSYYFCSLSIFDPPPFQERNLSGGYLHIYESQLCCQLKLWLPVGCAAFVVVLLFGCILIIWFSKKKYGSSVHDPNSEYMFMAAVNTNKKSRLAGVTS
In words: receptor availability assay, flow cytometry on mouse blood T cells after 2.5 mg/kg i.p. The procedure: ICOS target engagement may also be assessed as measured by receptor availability assay, for example, as follows. Naive mice were i.p. injected with either the isotype control mIgG2a at 2.5 mg/kg or […] with a mouse IgG2a at 2.5 mg/kg. At various time-points post-injection, blood was collected in EDTA coated microtubes via submandibular draw.
Whole blood was Fc blocked using mouse TruStain (BioLegend) for 5 minutes on ice. Following incubation, 100 μl of 2× concentrated extracellular staining antibody mixture was added to each sample for 30 minutes at 4° C. Samples were spun down and fixed and permeabilized in Foxp3 staining buffer (eBioSciences) for 30 minutes at 4° C. Samples were then spun down and resuspended in intracellular antibody stain for 30 minutes at 4° C. Samples were spun down and resuspended in 0.1% PFA. Samples were analyzed on a BD LSRII Fortessa. Tregs were identified as live CD45+ CD3+ CD4+ FoxP3+. Teff cells were identified as live CD45+ CD3+ CD4+ FoxP3−. CD8+ cells were identified as live CD45+ CD3+ CD8+. Fluorescently labeled 37A10S713-mG2a (DyLight 650 conjugated) was used as the staining reagent for ICOS. Receptor availability at each time point was determined using the following formula: […]
(In general: In flow cytometry, cells or beads pass a laser one at a time.)

B1: 37A10S713-mG2a (antibody, V domains shown)
VH: EVQLVESGGGLVQPGGSLRLSCAASGFTFSDYWMDWVRQAPGKGLVWVSNIDEDGSITEYSPFVKGRFTISRDNAKNTLYLQMNSLRAEDTAVYYCTRWGRFGFDSWGQGTLVTVSS
VL: DIVMTQSPDSLAVSLGERATINCKSSQSLLSGSFNYLTWYQQKPGQPPKLLIFYASTRHTGVPDRFSGSGSGTDFTLTISSLQAEDVAVYYCHHHYNAPPTFGPGTKVDIK
notes: 37A10S713 VH and VL with a mouse IgG2a; also called 37A10S713 with a mouse IgG2a; 37A10S713-mIgG2a
For the molecule B1, the binding result is on record as “binds”.
